Numbering of substitutions follows the chain as printed.
B1: hzA01-3.3 (antibody, human IgG4 S228P, kappa, V domains shown)
VH: QVQLKESGPGLVKPSETLSLTCTVSGFSLPTSGVHWIRQPPGKGLEWIGVIWAGGDTNYNSALKSRVTISKDNSKSQVFLKLSSVTAADTAVYYCLGHGHFDVWGQGTLVTVSS
VL: DVVMTQSPLSLPVTLGQPASISCRSSQSLVHSSGNTYLQWYLQRPGQSPGLLIYKVSNRFSGVPDRFSGSGSGTDFTLKISRVEAEDVGVYYCSQTTHVPWTFGQGTKLEIKR
notes: Humanized A01; also called hzA01L3 + hzA01H3
B2: CP-870893 (antibody, human IgG2, kappa, V domains shown)
VH: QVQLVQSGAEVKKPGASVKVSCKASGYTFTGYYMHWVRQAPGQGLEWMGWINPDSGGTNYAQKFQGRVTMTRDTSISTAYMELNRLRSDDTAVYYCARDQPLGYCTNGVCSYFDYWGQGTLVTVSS
VL: DIQMTQSPSSVSASVGDRVTITCRASQGIYSWLAWYQQKPGKAPNLLIYTASTLQSGVPSRFSGSGSGTDFTLTISSLQPEDFATYYCQQANIFPLTFGGGTKVEIKR
B3: Chi-B01 (antibody, human IgG4 S228P, kappa, V domains shown)
VH: QIQLVQSGPELKKPGETVKISCKASGYTFTNYGMNWVKQAPGKGLKWMGWINPYTGEPTYADDFKGRFAFSVETSASTAYLQINNLKNEDTATYFCARKPPFDYWGQGTTLTVSS
VL: DIVMTQAAPSVPVTPGESVSISCRSSKSLLHSNGNTYLYWFLQRPGQSPQILIYRVSNLASGVPDRFSGSGSGTAFTLRISRVEAEDVGVYYCMQHVEYPFTFGSGTKLEIKR
notes: also called chimeric B01
B4: Chi-B02 (antibody, human IgG4 S228P, kappa, V domains shown)
VH: EVQLQQSGPELVKPGASVKMSCKASGYTFTSYVMYWVKQKPGQGLEWIGYVNPYNDGTNYNEKFKGKATLTSDKSSSTAYMELSSLTSEDSAVYYCARGAMDYWGQGTSVTVSS
VL: B3 VL with N33Q
B5: Chi-B03 (antibody, human IgG4 S228P, kappa, V domains shown)
VH: EVKLVESGGGLVQPGGSLRLSCATSGFTFSDFYMEWVRQPPGKRLEWIAASRDKANDYTTEYSPSVQGRFIVSRDSSQSILYLQMNALRTEDTAIYYCARDVGRSYALDYWGQGTSVTVSS
VL: QVVLTQSPAIMSASPGEKVTMTCSASSSVTYMHWYQQKSGTSPKRWIYVTSKLASGVPTRFSGSGSGTSYSLTISSMEAEDAATYYCQQWSRKPPTFGAGTKLELKR
B6: hzA01-3.1 (antibody, human IgG4 S228P, kappa, V domains shown)
VH: B1 VH with K5Q, S61P, A62S, S76N
VL: B1 VL
notes: Humanized A01; also called hzA01L3 + hzA01H1
B7: hzA01-3.4 (antibody, human IgG4 S228P, kappa, V domains shown)
VH: B1 VH with K64M, L82M
VL: B1 VL
notes: Humanized A01; also called hzA01L3 + hzA01H4
B8: hzA01-1.1 (antibody, human IgG4 S228P, kappa, V domains shown)
VH: B1 VH with K5Q, S61P, A62S, S76N
VL: DIQMTQSPSSLSASVGDRVTITCRSSQSLVHSSGNTYLQWYQQKPGKAPGLLIYKVSNRFSGVPSRFSGSGSGTDFTLTISSLQPEDFATYYCSQTTHVPWTFGQGTKVEIKR
notes: Humanized A01; also called hzA01L1 + hzA01H1
B9: hzA01-2.1 (antibody, human IgG4 S228P, kappa, V domains shown)
VH: B1 VH with K5Q, S61P, A62S, S76N
VL: EIVLTQSPGTLSLSPGERATLSCRSSQSLVHSSGNTYLQWYQQKPGQAPRLLIYKVSNRFSGIPDRFSGSGSGTDFTLTISRLEPEDFAVYYCSQTTHVPWTFGQGTKVEIKR
notes: Humanized A01; also called hzA01L2 + hzA01H1
B10: hzA01-1.2 (antibody, human IgG4 S228P, kappa, V domains shown)
VH: QVQLVESGGGVVQPGRSLRLSCAASGFSLPTSGVHWVRQAPGKGLEWVAVIWAGGDTNYADSVKGRFTISRDNSKNTVYLQMNSLRAEDTAVYYCLGHGHFDVWGQGTLVTVSS
VL: B8 VL
notes: Humanized A01; also called hzA01L1 + hzA01H2
B11: hzA01-2.2 (antibody, human IgG4 S228P, kappa, V domains shown)
VH: B10 VH
VL: B9 VL
notes: Humanized A01; also called hzA01L2 + hzA01H2

Molecular target: T1, human CD40 (hCD40), full length, on cells (human, UniProt P25942 21-277)
Assay: cell-based or functional assay

Binder	MFI value (CD95 on Ramos cells), Fc crosslinking with anti-human IgG Fcγ antibody, 1 µg/mL antibody	MFI value (CD95 on Ramos cells), Fc crosslinking with anti-human IgG Fcγ antibody, 10 µg/mL antibody
B1	14100 MFI	12300 MFI
B2	136000 MFI	135000 MFI

Molecular target: T1, human CD40 (hCD40), full length, on …
Assay: cell-based or functional assay
Remark: another data set of the same source

Binder	IC50, inhibition of Ramos cell apoptosis induced by CD40L and IL-4	Inhibition, % of Ramos cell apoptosis at 0.0128 ng/mL	Inhibition, % of Ramos cell apoptosis at 0.064 ng/mL	Inhibition, % of Ramos cell apoptosis at 0.32 ng/mL	Inhibition, % of Ramos cell apoptosis at 1.6 ng/mL	Inhibition, % of Ramos cell apoptosis at 8 ng/mL	Inhibition, % of Ramos cell apoptosis at 40 ng/mL	Inhibition, % of Ramos cell apoptosis at 200 ng/mL	Inhibition, % of Ramos cell apoptosis at 1000 ng/mL
B3	0.0301 nM	-24%	-33%	-12%	2%	55%	93%	96%	93%
B4	0.0275 nM	-18%	-16%	-5%	5%	59%	92%	88%	75%
B5	0.0119 nM	-10%	-8%	16%	31%	90%	90%	84%	70%

Molecular target: T2, CynoCD40-His protein (Acro, Cat. No.: CD0-C52H6) (cynomolgus monkey, UniProt P25942 21-193 (human entry))
T2 construct: Bought protein; also called cynomolgus monkey CD40 antigen; not shown: His tag
T2 chain: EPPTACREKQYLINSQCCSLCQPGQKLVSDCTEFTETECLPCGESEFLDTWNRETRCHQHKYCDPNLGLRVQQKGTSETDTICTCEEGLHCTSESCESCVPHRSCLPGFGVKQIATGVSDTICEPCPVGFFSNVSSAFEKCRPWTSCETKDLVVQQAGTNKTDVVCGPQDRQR
Assay: BLI (Fortebio Octet RED96e), antibody captured on AHC sensor, antigen 1.56-100 nM, 1:1 model
Procedure: (§1) The affinity of humanized anti-CD40 antibodies to an hCD40-His protein (Acro, Cat. No.: CD0-H5228) and a CynoCD40-His protein (Acro, Cat. No.: CD0-C52H6) was detected by a ForteBio molecular interaction system. Firstly, an AHC biosensor (Fortebio, Cat. No.: 18-5060) was activated, and then immersed in an anti-CD40 antibody solution at a final concentration of 5 μg/mL to capture the antibodies. Serially 2-fold diluted hCD40-His protein and CynoCD40-His protein in a final concentration range of 1.56 nM-100 nM were then […] the AHC biosensor. The response signals were detected in real time on a Fortebio molecular interaction system (Fortebio Octet RED96e) to give association and dissociation curves. After the completion of dissociation in each cycle, the AHC biosensor was regenerated for the next capture; the procedure was repeated until the affinity of the different antibodies for CD40 was determined. The resulting data were analyzed by Fortebio Data Analysis 11.0 software using a 1:1 (Langmuir) binding model to determine the Kₐ (Kₒₙ) and Kd (Kdis) values, and the dissociation constant KD was calculated by KD=Kd/Kₐ. See www.fortebio.com for more detailed detection procedures and related information.

Binder	Kd	koff	kon
B1	0.243 nM	0.000484 s⁻¹	1.99e+06 M⁻¹ s⁻¹
B6	0.365 nM	0.000686 s⁻¹	1.88e+06 M⁻¹ s⁻¹
B7	0.262 nM	0.000532 s⁻¹	2.03e+06 M⁻¹ s⁻¹
B8	0.576 nM	0.000923 s⁻¹	1.6e+06 M⁻¹ s⁻¹
B9	1.5 nM	0.00282 s⁻¹	1.88e+06 M⁻¹ s⁻¹

Molecular target: T3, hCD40-His protein (Acro, Cat. No.: CD0-H5228) (human, UniProt P25942 21-193)
T3 construct: Bought protein; also called human CD40 antigen; not shown: His tag
Assay: as above
Procedure: as §1

Binder	Kd	koff	kon
B1	0.255 nM	0.000414 s⁻¹	1.63e+06 M⁻¹ s⁻¹
B6	0.366 nM	0.000601 s⁻¹	1.64e+06 M⁻¹ s⁻¹
B7	0.264 nM	0.000454 s⁻¹	1.72e+06 M⁻¹ s⁻¹
B3	7.66 nM	0.00246 s⁻¹	321000 M⁻¹ s⁻¹
B8	0.808 nM	0.00101 s⁻¹	1.25e+06 M⁻¹ s⁻¹
B9	1.76 nM	0.00255 s⁻¹	1.45e+06 M⁻¹ s⁻¹
B10	59.9 nM	0.0484 s⁻¹	808000 M⁻¹ s⁻¹
B11	113 nM	0.101 s⁻¹	893000 M⁻¹ s⁻¹

Molecular target: T1, human CD40 (hCD40), full length, on …
Assay: flow cytometry (MFI) on 293T-hCD40-NFκB cells, PE anti-human IgG detection

Binder	EC50 (read off the curve)
B1	~3 ng/mL
B6	~2 ng/mL
B7	~2 ng/mL

Molecular target: T4, hCD40-mFc (human)
T4 construct: Prepared in-house in CHO cells; also called human CD40 recombinant protein containing a mouse antibody heavy chain Fc; Human CD40-mFc
Assay: flow cytometry, blocking of hCD40-mFc (2 µg/mL) binding to CHO-K1-hCD40L cells
Procedure: A CHO-K1-hCD40L cell suspension and a CHO-K1-CynoCD40L cell suspension at a cell concentration of 3×10⁵ cells/mL were separately added into a 96-well U-bottom plate at 100 μL/well. An hCD40-mFc protein at a final concentration of 2 μg/mL (prepared in-house, SEQ ID NO: 64) or a cynoCD40-mFc protein at a final concentration of 2 μg/mL (prepared in-house, SEQ ID NO: 65) was added correspondingly, before serially 2-fold diluted anti-CD40 antibodies in a final concentration range of 312.5 ng/ml-40000 ng/ml were added. The mixture was mixed well, and then incubated at 4° C. for 1 h. The cells were washed with PBS containing 2% of FBS, and then a PE-conjugated goat anti-mouse IgG (H+L) antibody (Abcam, Cat. No.: ab97041) diluted at a volume ratio of 1:500 was added, and the mixture was incubated at 4° C. for 0.5 h. The cells were washed with PBS containing 2% of […], and then resuspended in PBS containing 2% of FBS. The fluorescence signals were detected on a flow cytometer (Sartorius IQue3). The activity of anti-CD40 antibodies to block the binding of CHO-K1-hCD40L cells to an hCD40-mFc protein and CHO-K1-cynoCD40L cells to a cynoCD40-mFc protein was analyzed by the mean fluorescence intensity (MFI) of staining, and the IC₅₀ value was calculated by GraphPad Prism software.

Binder	IC50
B1	38.4 nM
B6	22.8 nM
B7	19.8 nM

Molecular target: T1, human CD40 (hCD40), full length, on …
Assay: cell-based or functional assay
Remark: another data set of the same source

Binder	IC50 (read off the curve); NF-κB luciferase reporter (RLU), 293T-hCD40-NFκB cells co-cultured 1:1 with CHO-K1-hCD40L cells
B1	~2 ng/mL
B6	~0.6 ng/mL
B7	~0.6 ng/mL
B8	~0.3 ng/mL
B9	~0.6 ng/mL

Source: patent US20240383994A1 (CHIA TAI TIANQING PHARMACEUTICAL GROUP, published 2024)
